Laboratory results: publication PMC4604100, “Melanocortin agonists stimulate lipolysis in human adipose tissue explants but not in adipocytes” (BMC Research Notes, 2015)

How the values were obtained:
Conditions in all cases: modification not given
[1] = biological target: Melanocortin receptor 3 (Homo sapiens), P41968; experiment: competition
[2] = biological target: Melanocortin receptor 4 (Homo sapiens), P32245; experiment: competition
[3] = biological target: Melanocortin receptor 5 (Homo sapiens), P33032; experiment: competition
[4] = biological target: Melanocortin receptor 1 (Homo sapiens), Q01726; experiment: 125I-NDP-α-MSH competition binding (membrane filtration)
Sequence of Melanocortin receptor 1 (Homo sapiens), Q01726 (Q01726 whole entry): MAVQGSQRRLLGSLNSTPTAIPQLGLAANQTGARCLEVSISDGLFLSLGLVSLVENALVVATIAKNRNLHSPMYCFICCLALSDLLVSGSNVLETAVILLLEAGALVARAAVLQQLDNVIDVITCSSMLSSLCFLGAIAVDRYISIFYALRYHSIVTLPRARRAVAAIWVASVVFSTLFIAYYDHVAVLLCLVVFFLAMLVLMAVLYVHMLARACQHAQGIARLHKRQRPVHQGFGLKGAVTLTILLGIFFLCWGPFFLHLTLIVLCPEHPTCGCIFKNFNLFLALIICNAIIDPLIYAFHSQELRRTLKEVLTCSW

Sequence of Melanocortin receptor 4 (Homo sapiens), P32245 (P32245 whole entry): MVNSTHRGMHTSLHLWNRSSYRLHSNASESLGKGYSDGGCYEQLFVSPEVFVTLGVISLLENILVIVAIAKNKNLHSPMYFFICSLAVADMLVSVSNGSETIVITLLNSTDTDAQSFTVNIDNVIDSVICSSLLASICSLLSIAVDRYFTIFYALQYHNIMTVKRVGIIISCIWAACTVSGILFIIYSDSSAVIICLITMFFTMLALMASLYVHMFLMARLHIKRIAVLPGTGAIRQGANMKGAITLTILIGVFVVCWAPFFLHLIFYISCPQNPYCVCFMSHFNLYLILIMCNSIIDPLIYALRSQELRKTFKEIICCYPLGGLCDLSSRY
Sequence of Melanocortin receptor 5 (Homo sapiens), P33032 (P33032 whole entry): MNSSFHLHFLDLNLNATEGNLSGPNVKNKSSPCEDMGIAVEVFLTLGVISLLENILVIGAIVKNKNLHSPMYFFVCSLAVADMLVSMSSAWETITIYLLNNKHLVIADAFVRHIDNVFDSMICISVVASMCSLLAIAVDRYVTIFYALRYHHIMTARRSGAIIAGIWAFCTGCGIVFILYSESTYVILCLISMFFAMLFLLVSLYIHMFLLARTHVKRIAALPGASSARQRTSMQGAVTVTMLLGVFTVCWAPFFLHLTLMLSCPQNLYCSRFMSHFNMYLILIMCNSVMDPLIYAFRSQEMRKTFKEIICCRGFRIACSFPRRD
Sequence of Melanocortin receptor 3 (Homo sapiens), P41968 (P41968 whole entry): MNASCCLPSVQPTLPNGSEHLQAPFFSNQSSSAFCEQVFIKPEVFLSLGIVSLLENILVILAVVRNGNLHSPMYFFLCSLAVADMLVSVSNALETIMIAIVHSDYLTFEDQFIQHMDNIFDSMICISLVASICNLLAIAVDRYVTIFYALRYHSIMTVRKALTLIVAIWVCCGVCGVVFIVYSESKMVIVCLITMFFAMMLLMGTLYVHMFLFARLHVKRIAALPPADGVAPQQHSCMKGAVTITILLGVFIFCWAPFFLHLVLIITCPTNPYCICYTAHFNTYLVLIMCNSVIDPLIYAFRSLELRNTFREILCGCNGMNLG

- Ki [1]: 11.1 nM
- Ki [2]: 1.2 nM
- Ki [3]: 46 nM
- Ki [4]: 0.09 nM
Binder: SYSMEHFRWGKPVGKKRRPVKVYPNGAEDESAEAFPLEF [ACTH, P01189]
